Laboratory results as given in patent US5985836A, “Alpha-1 proteinase inhibitor binding peptides” (Bayer Corporation, priority 1998, dated 1999).
Ends that are not written are not given here.

Biological target: T1, A1PI (Homo sapiens, UniProt P01009)
T1 construct: Human plasma is currently the only approved source of therapeutic AlPI
Assay: A1PI binding on peptide-resin column, injection of 1 mg A1PI in equilibration buffer
Details: for % of Total A1PI Eluted by Fraction (Based on Absorbance at 280 nm), 1M NaCl / % of Total A1PI Eluted by Fraction (Based on Absorbance at 280 nm), 2% Acetic Acid / % of Total A1PI Eluted by Fraction (Based on Absorbance at 280 nm), Flowthrough: 1 mg A1PI; for Percent A1PI Eluted by Fraction Based on Absorbance at 280 nm, 1M NaCl / Percent A1PI Eluted by Fraction Based on Absorbance at 280 nm, 2% Acetic Acid / Percent A1PI Eluted by Fraction Based on Absorbance at 280 nm, Flowthrough / Percent A1PI Eluted by Fraction, 1M NaCl / Percent A1PI Eluted by Fraction, 2% Acetic Acid / Percent A1PI Eluted by Fraction, Flowthrough: 1 mg A1PI in equilibration buffer
Protocol: Confirmatory binding assays were performed in a column chromatographic format on a microbore HPLC using individual peptide sequences synthesized directly onto the Toyopearl 650 M Chelate resin which had been modified with Totda followed by an alanine residue (A-Totda-Toyopearl), at a final substitution density of 0.1 mmole/g resin. The resin was packed into 0.4×5 cm columns (Thomson, Springfield, Va.) and tested on the Michrom HPLC system (Michrom BioResources, Auburn, Calif.). The elution program for all trials utilized the following method. The column was pre-equilibrated with equilibration buffer (as above). 1 ml of sample was injected and allowed sufficient time to flowthrough the column using equilibration buffer. The column was then washed with step elutions of 1M NaCl and 3M NaCl in equilibration buffer. The column was exposed to equilibration buffer with 0.1M NaCl. Any remaining protein was eluted with elution buffer (2% by volume glacial acetic acid in water).
A Gilson FC204 fraction collector at the HPLC outlet collected individual eluates for further analysis. Fractions collected from the 2% acetic acid eluates were neutralized with 2M Tris, pH 10.5 to bring the pH to neutrality. The protein samples were reconstituted in equilibration buffer unless otherwise stated. The samples were analyzed by the integration of the absorbance at 280 nm or by immunonephelometry. The specific method of determination is presented for each figure.
Tables 2 and 3 present the elution profiles for 19 sequences based on the injection of 1 mg AlPI in equilibration buffer at 4° C. and 20° C., respectively. The columns were run at a constant flow rate of865 μl/min (413 cm/hr) or 523 μl/min (250 cm/hr). No dependence of the elution profile with flow rate was found. The Percent AlPI Eluted by Fraction represents the amount eluted in the flowthrough, 1M NaCl wash, and 2% acetic acid fractions relative to the total AlPI eluted. The percentages are based on either the integration of the peak areas at […]

[1] = VIWLVR N-terminal point mutations, 4° C.

T1 sequence (P01009 25-418): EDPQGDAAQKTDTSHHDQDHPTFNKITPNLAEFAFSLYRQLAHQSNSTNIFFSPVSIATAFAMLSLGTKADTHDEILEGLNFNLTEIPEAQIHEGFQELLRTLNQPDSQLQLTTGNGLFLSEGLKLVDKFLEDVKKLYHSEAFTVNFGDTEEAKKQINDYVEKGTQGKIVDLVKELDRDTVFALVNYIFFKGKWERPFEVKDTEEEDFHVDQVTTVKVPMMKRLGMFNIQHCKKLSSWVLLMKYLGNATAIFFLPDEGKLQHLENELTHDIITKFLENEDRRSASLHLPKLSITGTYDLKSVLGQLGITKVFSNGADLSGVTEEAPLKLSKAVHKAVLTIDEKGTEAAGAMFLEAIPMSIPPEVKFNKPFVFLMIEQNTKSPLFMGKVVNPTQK

| Substance | % of Total A1PI Eluted by Fraction (Based on Absorbance at 280 nm), 1M NaCl (VIFLVR point mutations, 4° C.) [%] | % of Total A1PI Eluted by Fraction (Based on Absorbance at 280 nm), 2% Acetic Acid (VIFLVR point mutations, 4° C.) [%] | % of Total A1PI Eluted by Fraction (Based on Absorbance at 280 nm), Flowthrough (VIFLVR point mutations, 4° C.) [%] | % of Total A1PI Eluted by Fraction (Based on Absorbance at 280 nm), 1M NaCl [1] [%] | % of Total A1PI Eluted by Fraction (Based on Absorbance at 280 nm), 2% Acetic Acid [1] [%] | % of Total A1PI Eluted by Fraction (Based on Absorbance at 280 nm), Flowthrough [1] [%] | other results |
| --- | --- | --- | --- | --- | --- | --- | --- |
| V R F L V R: point mutation of VIFLVR, position 2 (VRFLVR) | 39 | 61 | 0 | – | – | – | – |
| VIFLVA: point mutation of VIFLVR, position 6, C-terminal Arg replaced with Ala | 2 | 21 | 77 | – | – | – | binding of AlPI (in words): little binding of AlPI; % of Total A1PI Eluted by Fraction (Based on Absorbance at 280 nm), 1M NaCl (VIFLVR point mutations, 20° C.): 0%; % of Total A1PI Eluted by Fraction (Based on Absorbance at 280 nm), 2% Acetic Acid (VIFLVR point mutations, 20° C.): 8%; % of Total A1PI Eluted by Fraction (Based on Absorbance at 280 nm), Flowthrough (VIFLVR point mutations, 20° C.): 92% |
| V I F L Y R: point mutation of VIFLVR, position 5 (VIFLYR) | 4 | 40 | 56 | – | – | – | % of Total A1PI Eluted by Fraction (Based on Absorbance at 280 nm), 1M NaCl (VIFLVR point mutations, 20° C.): 3%; % of Total A1PI Eluted by Fraction (Based on Absorbance at 280 nm), 2% Acetic Acid (VIFLVR point mutations, 20° C.): 20%; % of Total A1PI Eluted by Fraction (Based on Absorbance at 280 nm), Flowthrough (VIFLVR point mutations, 20° C.): 77% |
| V I R L V R: VIWLVR with Trp at position 3 replaced by Arg (VIRLVR) | – | – | – | – | – | – | % of Total A1PI Eluted by Fraction (Based on Absorbance at 280 nm), 1M NaCl (Trp position mutations, 4° C.): 90%; % of Total A1PI Eluted by Fraction (Based on Absorbance at 280 nm), 2% Acetic Acid (Trp position mutations, 4° C.): 10%; % of Total A1PI Eluted by Fraction (Based on Absorbance at 280 nm), Flowthrough (Trp position mutations, 4° C.): 0%; % of Total A1PI Eluted by Fraction (Based on Absorbance at 280 nm), 1M NaCl (Trp position mutations, 20° C.): 45%; % of Total A1PI Eluted by Fraction (Based on Absorbance at 280 nm), 2% Acetic Acid (Trp position mutations, 20° C.): 55%; % of Total A1PI Eluted by Fraction (Based on Absorbance at 280 nm), Flowthrough (Trp position mutations, 20° C.): 0% |
| NSWLVR: point mutation of VIWLVR on Ala-Totda-Toyopearl (not fully specified (C-terminus)) | – | – | – | 43 | 5 | 52 | – |
| V A F L V R: point mutation of VIFLVR, position 2 (VAFLVR) | 55 | 45 | 0 | – | – | – | % of Total A1PI Eluted by Fraction (Based on Absorbance at 280 nm), 1M NaCl (VIFLVR point mutations, 20° C.): 8%; % of Total A1PI Eluted by Fraction (Based on Absorbance at 280 nm), 2% Acetic Acid (VIFLVR point mutations, 20° C.): 92%; % of Total A1PI Eluted by Fraction (Based on Absorbance at 280 nm), Flowthrough (VIFLVR point mutations, 20° C.): 0% |
| DSWLVR: point mutation of VIWLVR on Ala-Totda-Toyopearl (not fully specified (C-terminus)) | – | – | – | 10 | 0 | 90 | – |
| SNWLVR: point mutation of VIWLVR on Ala-Totda-Toyopearl (not fully specified (C-terminus)) | – | – | – | 95 | 5 | 0 | – |
| SHWLVR: point mutation of VIWLVR on Ala-Totda-Toyopearl (not fully specified (C-terminus)) | – | – | – | 87 | 13 | 0 | – |
| N I F L V R: point mutation of VIFLVR, position 1 (NIFLVR) | 25 | 75 | 0 | – | – | – | – |
| NNWLVR: point mutation of VIWLVR on Ala-Totda-Toyopearl (not fully specified (C-terminus)) | – | – | – | 13 | 4 | 83 | – |
| IKRYYN | – | – | – | – | – | – | Percent A1PI Eluted by Fraction Based on Absorbance at 280 nm, 1M NaCl (4° C.): 100%; Percent A1PI Eluted by Fraction Based on Absorbance at 280 nm, 2% Acetic Acid (4° C.): 0%; Percent A1PI Eluted by Fraction Based on Absorbance at 280 nm, Flowthrough (4° C.): 0%; Percent A1PI Eluted by Fraction, 1M NaCl (20° C.): 95%; Percent A1PI Eluted by Fraction, 2% Acetic Acid (20° C.): 5%; Percent A1PI Eluted by Fraction, Flowthrough (20° C.): 0% |
| HDWLVR: point mutation of VIWLVR on Ala-Totda-Toyopearl (not fully specified (C-terminus)) | – | – | – | 30 | 0 | 70 | – |
| Ac-V I F L V R: N-terminal acetylated sequence Ac-VIFLVR (listed under SEQ ID No:37) (not fully specified (C-terminus); printed as Ac-VIFLVR) | 2 | 22 | 76 | – | – | – | % of Total A1PI Eluted by Fraction (Based on Absorbance at 280 nm), 1M NaCl (VIFLVR point mutations, 20° C.): 0%; % of Total A1PI Eluted by Fraction (Based on Absorbance at 280 nm), 2% Acetic Acid (VIFLVR point mutations, 20° C.): 0%; % of Total A1PI Eluted by Fraction (Based on Absorbance at 280 nm), Flowthrough (VIFLVR point mutations, 20° C.): 100% |
| V H F L V R: point mutation of VIFLVR, position 2 (VHFLVR) | 35 | 65 | 0 | – | – | – | – |
| SDWLVR: point mutation of VIWLVR on Ala-Totda-Toyopearl (not fully specified (C-terminus)) | – | – | – | 1 | 1 | 98 | – |
| RRKYLW | – | – | – | – | – | – | Percent A1PI Eluted by Fraction Based on Absorbance at 280 nm, 1M NaCl (4° C.): 92%; Percent A1PI Eluted by Fraction Based on Absorbance at 280 nm, 2% Acetic Acid (4° C.): 8%; Percent A1PI Eluted by Fraction Based on Absorbance at 280 nm, Flowthrough (4° C.): 0%; Percent A1PI Eluted by Fraction, 1M NaCl (20° C.): 82%; Percent A1PI Eluted by Fraction, 2% Acetic Acid (20° C.): 18%; Percent A1PI Eluted by Fraction, Flowthrough (20° C.): 0% |
| V K F L V R: point mutation of VIFLVR, position 2 (VKFLVR) | 66 | 34 | 0 | – | – | – | % of Total A1PI Eluted by Fraction (Based on Absorbance at 280 nm), 1M NaCl (VIFLVR point mutations, 20° C.): 49%; % of Total A1PI Eluted by Fraction (Based on Absorbance at 280 nm), 2% Acetic Acid (VIFLVR point mutations, 20° C.): 51%; % of Total A1PI Eluted by Fraction (Based on Absorbance at 280 nm), Flowthrough (VIFLVR point mutations, 20° C.): 0% |
| NHWLVR: point mutation of VIWLVR on Ala-Totda-Toyopearl (not fully specified (C-terminus)) | – | – | – | 83 | 17 | 0 | – |
| HHWLVR: point mutation of VIWLVR on Ala-Totda-Toyopearl (not fully specified (C-terminus)) | – | – | – | 86 | 14 | 0 | – |
| NWKRVR | – | – | – | – | – | – | Percent A1PI Eluted by Fraction Based on Absorbance at 280 nm, 1M NaCl (4° C.): 95%; Percent A1PI Eluted by Fraction Based on Absorbance at 280 nm, 2% Acetic Acid (4° C.): 5%; Percent A1PI Eluted by Fraction Based on Absorbance at 280 nm, Flowthrough (4° C.): 0%; Percent A1PI Eluted by Fraction, 1M NaCl (20° C.): 93%; Percent A1PI Eluted by Fraction, 2% Acetic Acid (20° C.): 7%; Percent A1PI Eluted by Fraction, Flowthrough (20° C.): 0% |
| V I D L V R: VIWLVR with Trp at position 3 replaced by Asp (VIDLVR) | – | – | – | – | – | – | % of Total A1PI Eluted by Fraction (Based on Absorbance at 280 nm), 1M NaCl (Trp position mutations, 4° C.): 0%; % of Total A1PI Eluted by Fraction (Based on Absorbance at 280 nm), 2% Acetic Acid (Trp position mutations, 4° C.): 0%; % of Total A1PI Eluted by Fraction (Based on Absorbance at 280 nm), Flowthrough (Trp position mutations, 4° C.): 100%; % of Total A1PI Eluted by Fraction (Based on Absorbance at 280 nm), 1M NaCl (Trp position mutations, 20° C.): 0%; % of Total A1PI Eluted by Fraction (Based on Absorbance at 280 nm), 2% Acetic Acid (Trp position mutations, 20° C.): 16%; % of Total A1PI Eluted by Fraction (Based on Absorbance at 280 nm), Flowthrough (Trp position mutations, 20° C.): 84% |
| DHWLVR: point mutation of VIWLVR on Ala-Totda-Toyopearl (not fully specified (C-terminus)) | – | – | – | 37 | 10 | 53 | – |
| SSWLVR: point mutation of VIWLVR on Ala-Totda-Toyopearl (not fully specified (C-terminus)) | – | – | – | 94 | 6 | 0 | – |
| HSWLVR: point mutation of VIWLVR on Ala-Totda-Toyopearl (not fully specified (C-terminus)) | – | – | – | 89 | 11 | 0 | – |
